Data reported in paper doi:10.1101/2022.07.28.501818.

Target: fibronectin (FN) from human plasma (human) (UniProt P02751)
Chain of UniProt P02751 (P02751 32-2477): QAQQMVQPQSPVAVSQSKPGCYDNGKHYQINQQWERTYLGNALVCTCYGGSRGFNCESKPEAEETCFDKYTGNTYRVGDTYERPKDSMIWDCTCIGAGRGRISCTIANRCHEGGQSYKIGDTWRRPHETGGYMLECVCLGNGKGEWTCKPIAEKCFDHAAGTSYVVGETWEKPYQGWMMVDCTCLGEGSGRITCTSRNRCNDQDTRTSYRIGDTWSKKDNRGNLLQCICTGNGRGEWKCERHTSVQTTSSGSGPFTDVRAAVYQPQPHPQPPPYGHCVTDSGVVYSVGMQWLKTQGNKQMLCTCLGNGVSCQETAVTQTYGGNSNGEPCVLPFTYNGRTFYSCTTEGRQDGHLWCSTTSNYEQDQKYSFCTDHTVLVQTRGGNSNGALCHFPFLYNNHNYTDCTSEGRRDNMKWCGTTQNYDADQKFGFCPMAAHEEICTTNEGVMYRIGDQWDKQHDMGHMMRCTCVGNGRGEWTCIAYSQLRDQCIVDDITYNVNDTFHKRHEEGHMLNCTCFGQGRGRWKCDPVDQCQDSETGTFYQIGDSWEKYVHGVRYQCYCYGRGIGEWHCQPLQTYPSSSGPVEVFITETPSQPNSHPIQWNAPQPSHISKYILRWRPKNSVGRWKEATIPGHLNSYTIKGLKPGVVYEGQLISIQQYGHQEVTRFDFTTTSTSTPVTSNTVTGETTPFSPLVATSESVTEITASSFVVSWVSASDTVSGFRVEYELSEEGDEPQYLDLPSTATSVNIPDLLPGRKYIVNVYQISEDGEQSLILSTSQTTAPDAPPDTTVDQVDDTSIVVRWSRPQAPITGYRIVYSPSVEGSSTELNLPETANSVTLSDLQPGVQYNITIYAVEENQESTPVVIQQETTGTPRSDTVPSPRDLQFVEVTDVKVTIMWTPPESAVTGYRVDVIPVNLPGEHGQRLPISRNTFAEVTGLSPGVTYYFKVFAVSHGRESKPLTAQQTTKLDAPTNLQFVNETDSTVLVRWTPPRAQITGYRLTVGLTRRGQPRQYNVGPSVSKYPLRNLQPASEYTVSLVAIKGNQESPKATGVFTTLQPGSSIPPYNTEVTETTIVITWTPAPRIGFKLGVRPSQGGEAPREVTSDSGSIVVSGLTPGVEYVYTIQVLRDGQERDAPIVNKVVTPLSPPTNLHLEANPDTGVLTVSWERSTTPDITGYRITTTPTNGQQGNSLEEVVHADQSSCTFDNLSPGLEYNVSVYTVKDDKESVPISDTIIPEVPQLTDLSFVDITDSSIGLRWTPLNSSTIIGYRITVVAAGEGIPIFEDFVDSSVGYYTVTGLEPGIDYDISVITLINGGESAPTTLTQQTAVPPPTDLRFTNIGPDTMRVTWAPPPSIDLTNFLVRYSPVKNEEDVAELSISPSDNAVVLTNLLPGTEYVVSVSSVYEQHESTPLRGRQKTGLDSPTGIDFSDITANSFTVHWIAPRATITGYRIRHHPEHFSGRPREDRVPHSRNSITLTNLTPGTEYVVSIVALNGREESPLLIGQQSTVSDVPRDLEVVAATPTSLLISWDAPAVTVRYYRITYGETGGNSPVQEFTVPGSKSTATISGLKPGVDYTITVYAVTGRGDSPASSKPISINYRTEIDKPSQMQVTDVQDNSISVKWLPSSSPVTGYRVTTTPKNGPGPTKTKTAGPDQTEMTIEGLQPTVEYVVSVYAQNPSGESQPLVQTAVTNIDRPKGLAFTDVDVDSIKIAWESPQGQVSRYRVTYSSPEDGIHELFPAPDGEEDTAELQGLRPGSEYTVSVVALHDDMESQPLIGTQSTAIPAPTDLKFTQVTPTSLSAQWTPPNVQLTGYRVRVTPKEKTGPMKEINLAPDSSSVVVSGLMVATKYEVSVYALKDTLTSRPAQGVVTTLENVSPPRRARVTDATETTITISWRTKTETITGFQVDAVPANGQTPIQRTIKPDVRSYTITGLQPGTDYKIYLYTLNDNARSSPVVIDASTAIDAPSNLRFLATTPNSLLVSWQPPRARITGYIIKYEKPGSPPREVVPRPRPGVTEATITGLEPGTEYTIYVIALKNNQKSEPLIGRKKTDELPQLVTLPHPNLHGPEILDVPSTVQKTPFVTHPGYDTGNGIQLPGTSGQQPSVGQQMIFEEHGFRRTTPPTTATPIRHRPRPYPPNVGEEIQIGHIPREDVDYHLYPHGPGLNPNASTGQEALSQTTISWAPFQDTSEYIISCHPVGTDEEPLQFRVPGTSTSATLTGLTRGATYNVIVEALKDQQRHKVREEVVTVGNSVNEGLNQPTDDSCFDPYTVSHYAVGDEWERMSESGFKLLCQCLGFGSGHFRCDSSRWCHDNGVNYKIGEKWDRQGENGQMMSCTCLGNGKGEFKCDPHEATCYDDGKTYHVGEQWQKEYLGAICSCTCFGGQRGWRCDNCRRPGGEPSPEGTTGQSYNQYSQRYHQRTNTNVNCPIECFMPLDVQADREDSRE

surface density of BMP-2 on PEA-FN: 8 ng/cm2
B1: BMP-2 (bone morphogenetic protein 2) (ligand)
chain: QAKHKQRKRLKSSCKRHPLYVDFSDVGWNDWIVAPPGYHAFYCHGECPFPLADHLNSTNHAIVQTLVNSVNSKIPKACCVPTELSAISMLYLDENEKVVLKNYQDMVVEGCGCR
